Source: PMC7950113

Molecular target: ER degradation enhancing alpha-mannosidase-like 3 [human (endogenous in HEK293 cells)]
Test: Co-AP mass spectrometry with TMT quantification
Conditions: TMT intensities of interactors normalized to Tg intensities, read off a plot

Row | Substance | screen value [log2]
1 | FLAG-tagged thyroglobulin, WT mutant C1264R [human] / ER degradation enhancing alpha-mannosidase-like 3 [human (endogenous in HEK293 cells)] chain 1 C1245R | 0.07
2 | FLAG-tagged thyroglobulin, WT mutant G2341R [human] / ER degradation enhancing alpha-mannosidase-like 3 [human (endogenous in HEK293 cells)] chain 1 G2322R | 0.09

Continued, values first:

Row | screen value [log2] | Substance
3 | 0.2 | FLAG-tagged thyroglobulin, WT mutant A2234D [human] / ER degradation enhancing alpha-mannosidase-like 3 [human (endogenous in HEK293 cells)] chain 1 A2215D
4 | 0.2 | FLAG-tagged thyroglobulin, WT mutant L2284P [human] / ER degradation enhancing alpha-mannosidase-like 3 [human (endogenous in HEK293 cells)] chain 1 L2265P

Molecular target: OS9 endoplasmic reticulum lectin [human (endogenous in HEK293 cells)]
Test: Co-AP mass spectrometry with TMT quantification
Conditions: TMT intensities of interactors normalized to Tg intensities, read off a plot

Row | screen value [log2] | Substance
5 | 0.83 | FLAG-tagged thyroglobulin, WT mutant A2234D [human] / OS9 endoplasmic reticulum lectin [human (endogenous in HEK293 cells)] chain 1 A2215D
6 | 0.39 | FLAG-tagged thyroglobulin, WT mutant C1264R [human] / OS9 endoplasmic reticulum lectin [human (endogenous in HEK293 cells)] chain 1 C1245R
7 | 0.73 | FLAG-tagged thyroglobulin, WT mutant G2341R [human] / OS9 endoplasmic reticulum lectin [human (endogenous in HEK293 cells)] chain 1 G2322R
8 | 0.57 | FLAG-tagged thyroglobulin, WT mutant L2284P [human] / OS9 endoplasmic reticulum lectin [human (endogenous in HEK293 cells)] chain 1 L2265P

Molecular target: RAD-dependent oxidoreductase domain containing 2 [human (endogenous in HEK293 cells)]
Test: Co-AP mass spectrometry with TMT quantification
Conditions: TMT intensities of interactors normalized to Tg intensities, read off a plot

Row | screen value [log2] | Substance
9 | 0.67 | FLAG-tagged thyroglobulin, WT mutant A2234D [human] / RAD-dependent oxidoreductase domain containing 2 [human (endogenous in HEK293 cells)] chain 1 A2215D
10 | 0.42 | FLAG-tagged thyroglobulin, WT mutant C1264R [human] / RAD-dependent oxidoreductase domain containing 2 [human (endogenous in HEK293 cells)] chain 1 C1245R
11 | 0.45 | FLAG-tagged thyroglobulin, WT mutant G2341R [human] / RAD-dependent oxidoreductase domain containing 2 [human (endogenous in HEK293 cells)] chain 1 G2322R
12 | 0.58 | FLAG-tagged thyroglobulin, WT mutant L2284P [human] / RAD-dependent oxidoreductase domain containing 2 [human (endogenous in HEK293 cells)] chain 1 L2265P

Molecular target: SEL1L adaptor subunit of ERAD E3 ubiquitin ligase [human (endogenous in HEK293 cells)]
Test: Co-AP mass spectrometry with TMT quantification
Conditions: TMT intensities of interactors normalized to Tg intensities, read off a plot

Row | screen value [log2] | Substance
13 | 0.57 | FLAG-tagged thyroglobulin, WT mutant A2234D [human] / SEL1L adaptor subunit of ERAD E3 ubiquitin ligase [human (endogenous in HEK293 cells)] chain 1 A2215D
14 | 0.43 | FLAG-tagged thyroglobulin, WT mutant C1264R [human] / SEL1L adaptor subunit of ERAD E3 ubiquitin ligase [human (endogenous in HEK293 cells)] chain 1 C1245R
15 | 0.44 | FLAG-tagged thyroglobulin, WT mutant G2341R [human] / SEL1L adaptor subunit of ERAD E3 ubiquitin ligase [human (endogenous in HEK293 cells)] chain 1 G2322R
16 | 0.49 | FLAG-tagged thyroglobulin, WT mutant L2284P [human] / SEL1L adaptor subunit of ERAD E3 ubiquitin ligase [human (endogenous in HEK293 cells)] chain 1 L2265P

Molecular target: UDP-glucose glycoprotein glucosyltansferase 1 [human (endogenous in HEK293 cells)]
Test: Co-AP mass spectrometry with TMT quantification
Conditions: TMT intensities of interactors normalized to Tg intensities, read off a plot

Row | screen value [log2] | Substance
17 | 0.38 | FLAG-tagged thyroglobulin, WT mutant A2234D [human] / UDP-glucose glycoprotein glucosyltansferase 1 [human (endogenous in HEK293 cells)] chain 1 A2215D
18 | 0.25 | FLAG-tagged thyroglobulin, WT mutant C1264R [human] / UDP-glucose glycoprotein glucosyltansferase 1 [human (endogenous in HEK293 cells)] chain 1 C1245R
19 | 0.64 | FLAG-tagged thyroglobulin, WT mutant G2341R [human] / UDP-glucose glycoprotein glucosyltansferase 1 [human (endogenous in HEK293 cells)] chain 1 G2322R
20 | 0.58 | FLAG-tagged thyroglobulin, WT mutant L2284P [human] / UDP-glucose glycoprotein glucosyltansferase 1 [human (endogenous in HEK293 cells)] chain 1 L2265P

Molecular target: calnexin [human (endogenous in HEK293 cells)]
Test: Co-AP mass spectrometry with TMT quantification
Conditions: TMT intensities of interactors normalized to Tg intensities, read off a plot

Row | Substance | screen value [log2]
21 | FLAG-tagged thyroglobulin, WT mutant A2234D [human] / calnexin [human (endogenous in HEK293 cells)] chain 1 A2215D | -0.1
22 | FLAG-tagged thyroglobulin, WT mutant G2341R [human] / calnexin [human (endogenous in HEK293 cells)] chain 1 G2322R | 0.06

The remaining lines, values ahead:

Row | screen value [log2] | Substance
23 | -0.24 | FLAG-tagged thyroglobulin, WT mutant C1264R [human] / calnexin [human (endogenous in HEK293 cells)] chain 1 C1245R
24 | 0.13 | FLAG-tagged thyroglobulin, WT mutant L2284P [human] / calnexin [human (endogenous in HEK293 cells)] chain 1 L2265P

Molecular target: calreticulin [human (endogenous in HEK293 cells)]
Test: Co-AP mass spectrometry with TMT quantification
Conditions: TMT intensities of interactors normalized to Tg intensities, read off a plot

Row | screen value [log2] | Substance
25 | 0.07 | FLAG-tagged thyroglobulin, WT mutant A2234D [human] / calreticulin [human (endogenous in HEK293 cells)] chain 1 A2215D

Molecular target: glucosidase II alpha subunit [human (endogenous in HEK293 cells)]
Test: Co-AP mass spectrometry with TMT quantification
Conditions: TMT intensities of interactors normalized to Tg intensities, read off a plot

Row | screen value [log2] | Substance
26 | 0.2 | FLAG-tagged thyroglobulin, WT mutant A2234D [human] / glucosidase II alpha subunit [human (endogenous in HEK293 cells)] chain 1 A2215D
27 | 0.16 | FLAG-tagged thyroglobulin, WT mutant C1264R [human] / glucosidase II alpha subunit [human (endogenous in HEK293 cells)] chain 1 C1245R
28 | 0.36 | FLAG-tagged thyroglobulin, WT mutant G2341R [human] / glucosidase II alpha subunit [human (endogenous in HEK293 cells)] chain 1 G2322R
29 | 0.26 | FLAG-tagged thyroglobulin, WT mutant L2284P [human] / glucosidase II alpha subunit [human (endogenous in HEK293 cells)] chain 1 L2265P

Molecular target: oligosaccharyl transferase complex catalytic subunit B [human (endogenous in HEK293 cells)]
Test: Co-AP mass spectrometry with TMT quantification
Conditions: TMT intensities of interactors normalized to Tg intensities, read off a plot

Row | screen value [log2] | Substance
30 | -0.11 | FLAG-tagged thyroglobulin, WT mutant A2234D [human] / oligosaccharyl transferase complex catalytic subunit B [human (endogenous in HEK293 cells)] chain 1 A2215D
31 | -0.21 | FLAG-tagged thyroglobulin, WT mutant C1264R [human] / oligosaccharyl transferase complex catalytic subunit B [human (endogenous in HEK293 cells)] chain 1 C1245R
32 | 0.26 | FLAG-tagged thyroglobulin, WT mutant G2341R [human] / oligosaccharyl transferase complex catalytic subunit B [human (endogenous in HEK293 cells)] chain 1 G2322R
33 | 0.07 | FLAG-tagged thyroglobulin, WT mutant L2284P [human] / oligosaccharyl transferase complex catalytic subunit B [human (endogenous in HEK293 cells)] chain 1 L2265P

Molecular target: protein disulfide isomerase family A member 3 [human (endogenous in HEK293 cells)]
Test: Co-AP mass spectrometry with TMT quantification
Conditions: TMT intensities of interactors normalized to Tg intensities, read off a plot

Row | screen value [log2] | Substance
34 | 0.16 | FLAG-tagged thyroglobulin, WT mutant A2234D [human] / protein disulfide isomerase family A member 3 [human (endogenous in HEK293 cells)] chain 1 A2215D
35 | 0.35 | FLAG-tagged thyroglobulin, WT mutant C1264R [human] / protein disulfide isomerase family A member 3 [human (endogenous in HEK293 cells)] chain 1 C1245R
36 | 0.55 | FLAG-tagged thyroglobulin, WT mutant G2341R [human] / protein disulfide isomerase family A member 3 [human (endogenous in HEK293 cells)] chain 1 G2322R
37 | 0.6 | FLAG-tagged thyroglobulin, WT mutant L2284P [human] / protein disulfide isomerase family A member 3 [human (endogenous in HEK293 cells)] chain 1 L2265P
